From the supplement of paper PMC11246515
± gives the standard deviation of the averaged measurements.

Assay: total protein half-life in vivo (active degradation + dilution); higher = more stable protein
[1] = E. coli NCM3722 delta-clpP delta-lon delta-hslV, growth: N-lim chemostat, doubling time 6 h
[2] = E. coli NCM3722 delta-clpP, growth: N-lim chemostat, doubling time 6 h
[3] = E. coli NCM3722 delta-hslV, growth: N-lim chemostat, doubling time 6 h
[4] = E. coli NCM3722 delta-lon, growth: N-lim chemostat, doubling time 6 h
[5] = E. coli NCM3722 delta-smpB, growth: N-lim chemostat, doubling time 6 h
[6] = wild type E. coli NCM3722, growth: C-lim chemostat, doubling time 3 h
[7] = wild type E. coli NCM3722, growth: C-lim chemostat, doubling time 6 h
[8] = wild type E. coli NCM3722, growth: C-lim chemostat, doubling time 12 h
[9] = wild type E. coli NCM3722, growth: N-lim chemostat, doubling time 6 h
[10] = wild type E. coli NCM3722, growth: N-lim chemostat, doubling time 12 h
[11] = wild type E. coli NCM3722, growth: P-lim chemostat, doubling time 6 h
[12] = wild type E. coli NCM3722, growth: P-lim chemostat, doubling time 12 h

Sequence | total protein half-life in vivo [1] [h] | total protein half-life in vivo [2] [h] | total protein half-life in vivo [3] [h] | total protein half-life in vivo [4] [h] | total protein half-life in vivo [5] [h] | total protein half-life in vivo [6] [h] | total protein half-life in vivo [7] [h] | total protein half-life in vivo [8] [h] | total protein half-life in vivo [9] [h] | total protein half-life in vivo [10] [h] | total protein half-life in vivo [11] [h] | total protein half-life in vivo [12] [h]
MSQNNPLRALLDKQDILLLDGAMATELEARGCNLADSLWSAKVLVENPELIREVHLDYYRAGAQCAITASYQATPAGFAARGLDEAQSKALIGKSVELARKAREAYLAENPQAGTLLVAGSVGPYGAYLADGSEYRGDYHCSVEAFQAFHRPRVEALLDAGADLLACETLPNFSEIEALAELLTAYPRARAWFSFTLRDSEHLSDGTPLRDVVALLAGYPQVVALGINCIALENTTAALQHLHGLTVLPLVVYPNSGEHYDAVSKTWHHHGEHCAQLADYLPQWQAAGARLIGGCCRTTPADIAALKARS | 6.94 ± 1.2 | 4.714 ± 0.0092 | 4.45 ± 0.15 | 4.95 ± 0.14 | 4.6036 ± 0.0045 | 2.51 ± 0.23 | 5.009 ± 0.032 | 8.67 ± 1.6 | 5.31 ± 0.38 | 8.64 ± 0.12 | 6.15 ± 0.4 | 13 ± 0.82
MSQPRPLLSPPETEEQLLAQAQQLSGYTLGELAALVGLVTPENLKRDKGWIGVLLEIWLGASAGSKPEQDFAALGVELKTIPVDSLGRPLETTFVCVAPLTGNSGVTWETSHVRHKLKRVLWIPVEGERSIPLAQRRVGSPLLWSPNEEEDRQLREDWEELMDMIVLGQVERITARHGEYLQIRPKAANAKALTEAIGARGERILTLPRGFYLKKNFTSALLARHFLIQ | 5.31 ± 1.2 | 4.23 ± 0.2 | 3.6 ± 0.27 | 5.21 ± 0.38 | 3.89 ± 0.26 | 2.83 ± 0.25 | 5.16 ± 0.45 | 8.72 ± 0.48 | 4.92 |  | 5.79 | 8.63 ± 0.7
MSQQRPDRIKQMLHYLWQHRHLSTQQAMELFGYAEATVRRDFQYIVNQYPGMIRGHGCLDFDDSTDDKEYVFDVKRTLQSVAKREIAALARTMIKDGDCFFLDSGSTCLELAKCLADARVKVICNDIKIANELGCFPHVESYIIGGLIRPGYFSVGESLALEMINAFSVERAFISCDALSLETGITNATMFEVGVKTRIIQRSREVILMADHSKFDAVEPHAVATLSCIKTIISDSGLPETIAQRYQRAGCQLFLPHSIK | 6.15 ± 1.6 |  |  |  | 0.761 | 2 | 2.57 ± 0.049 | 3.04 ± 0.33 |  |  |  | 
MSQRITIDPVTRIEGHLRIDCEIENGVVSKAWASGTMWRGMEEIVKNRDPRDAWMIVQRICGVCTTTHALSSVRAAESALNIDVPVNAQYIRNIILAAHTTHDHIVHFYQLSALDWVDITSALQADPTKASEMLKGVSTWHLNSPEEFTKVQNKIKDLVASGQLGIFANGYWGHPAMKLPPEVNLIAVAHYLQALECQRDANRVVALLGGKTPHIQNLAVGGVANPINLDGLGVLNLERLMYIKSFIDKLSDFVEQVYKVDTAVIAAFYPEWLTRGKGAVNYLSVPEFPTDSKNGSFLFPGGYIENADLSSYRPITSHSDEYLIKGIQESAKHSWYKDEAPQAPWEGTTIPAYDGWSDDGKYSWVKSPTFYGKTVEVGPLANMLVKLAAGRESTQNKLNEIVAIYQKLTGNTLEVAQLHSTLGRIIGRTVHCCELQDILQNQYSALITNIGKGDHTTFVKPNIPATGEFKGVGFLEAPRGMLSHWMVIKDGIISNYQAVVPSTWNSGPRNFNDDVGPYEQSLVGTPVADPNKPLEVVRTIHSFDPCMACAVHVVDADGNEVVSVKVL [P0ACE0] | 5.01 ± 1.1 | 4.55 ± 1.2 | 3.87 ± 1.6 |  | 2.6 ± 0.2 | 2.07 ± 0.18 | 4.37 ± 1 | 7.59 ± 2.3 | 3.47 ± 0.036 | 4.62 | 4.92 ± 2.1 | 10.7 ± 4.1
MSQSEFDSALPNGIGLAPYLRMKQEGMTENESRIVEWLLKPGNLSCAPAIKDVAEALAVSEAMIVKVSKLLGFSGFRNLRSALEDYFSQSEQVLPSELAFDEAPQDVVNKVFNITLRTIMEGQSIVNVDEIHRAARFFYQARQRDLYGAGGSNAICADVQHKFLRIGVRCQAYPDAHIMMMSASLLQEGDVVLVVTHSGRTSDVKAAVELAKKNGAKIICITHSYHSPIAKLADYIICSPAPETPLLGRNASARILQLTLLDAFFVSVAQLNIEQANINMQKTGAIVDFFSPGALK [P0ACS7] | 6.33 ± 0.37 | 6 ± 0.24 | 5.5 ± 0.74 | 5.71 | 5.56 ± 0.55 | 3.07 ± 0.4 | 6.86 ± 0.23 | 14.6 ± 1.1 | 5.77 ± 0.44 | 11.3 ± 1.8 | 6.09 ± 0.2 | 12.5 ± 1.1
MSQVQFSHNPLFCIDIIKTYKPDFTPRVAFILGSGLGALADQIENAVAISYEKLPGFPVSTVHGHAGELVLGHLQGVPVVCMKGRGHFYEGRGMTIMTDAIRTFKLLGCELLFCTNAAGSLRPEVGAGSLVALKDHINTMPGTPMVGLNDDRFGERFFSLANAYDAEYRALLQKVAKEEGFPLTEGVFVSYPGPNFETAAEIRMMQIIGGDVVGMSVVPEVISARHCDLKVVAVSAITNMAEGLSDVKLSHAQTLAAAELSKQNFINLICGFLRKIA | 5.56 ± 0.68 |  |  |  | 1.93 ± 0.26 | 2 |  | 6.43 |  |  | 2.34 | 5.82
MSQVSLSQQLKEGNLFAEQCPSREVLKHVTSRWGVLILVALREGTHRFSDLRRKIGGVSEKMLAQSLQALEQDGFLNRIAYPVVPPHVEYSLTPLGEQVSEKVAALADWIELNLPEVLAVRDERAA [P0ACN2] | 4.79 |  |  | 2.18 | 2.12 | 2.01 | 3.02 ± 0.26 | 3.86 |  |  |  | 
MSQVTENKVISAPVPMTPLQEFWHYFKRNKGAVVGLVYVVIVLFIAIFANWIAPYNPAEQFRDALLAPPAWQEGGSMAHLLGTDDVGRDVLSRLMYGARLSLLVGCLVVVLSLIMGVILGLIAGYFGGLVDNIIMRVVDIMLALPSLLLALVLVAIFGPSIGNAALALTFVALPHYVRLTRAAVLVEVNRDYVTASRVAGAGAMRQMFINIFPNCLAPLIVQASLGFSNAILDMAALGFLGMGAQPPTPEWGTMLSDVLQFAQSAWWVVTFPGLAILLTVLAFNLMGDGLRDALDPKLKQ [P0AEG1] | 6.11 | 5.53 ± 0.37 | 6.45 | 6.14 ± 1 | 5.93 ± 0.46 | 3.47 | > 8 | 12.6 ± 2.1 | 6.39 ± 0.51 | 10.9 ± 2 | 6.16 ± 0.14 | 10.8 ± 2.3
